The target in this assay is AbmU (Streptomyces koyangensis SCSIO 5802). In words: crystal structure.

1 substance from publication PMC7439702 can be followed below.

AbmU (enzyme) registered a stoichiometry N of 2.
